This is an account of results in US20090215861A1.

The test deals with CCR3 chemokine receptor (human) (UniProt P51677). Nature of the test: cell-based or functional assay.
Chain of UniProt P51677 (P51677 whole entry): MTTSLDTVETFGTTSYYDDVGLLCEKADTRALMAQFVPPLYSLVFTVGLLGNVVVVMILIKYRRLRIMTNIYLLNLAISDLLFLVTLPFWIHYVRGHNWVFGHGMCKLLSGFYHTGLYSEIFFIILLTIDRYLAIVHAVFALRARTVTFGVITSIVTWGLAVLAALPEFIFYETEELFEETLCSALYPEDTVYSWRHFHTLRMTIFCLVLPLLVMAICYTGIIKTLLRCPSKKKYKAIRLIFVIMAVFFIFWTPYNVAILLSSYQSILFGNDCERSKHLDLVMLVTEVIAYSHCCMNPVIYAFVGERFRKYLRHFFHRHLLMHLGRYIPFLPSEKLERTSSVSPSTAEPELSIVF

Turning to “rhEotaxin (Biosource, cat# PMC1434) (from UniProt P51671 24-97) (ligand)”, the chemotactic response of purified human eosinophils to eotaxin; decrease of migration after antisense oligonucleotides against CCR3 turned out to be 55.6%.
